We go through 3 molecules from patent US20220089730A1 (IMAGINAB, published 2022).

Changes are numbered by the printed parent chain.

Assay [1] has as its target T1, PSMA (Prostate-Specific Membrane Antigen), glutamate carboxypeptidase 2 (Homo sapiens, UniProt Q04609 1-750).
T1 construct: also called FOLH1; target antigen expressed on LNCaP-AR cells
The assay is described as follows: flow cytometry (FACS) on C4-2 XCL cells.

In assay [2] the target is T1, PSMA (Prostate-Specific Membrane …). The assay is described as follows: flow cytometry (FACS) on LNCaP-AR cells and on C4-2 XCL cells.

T1 sequence (Q04609 whole entry): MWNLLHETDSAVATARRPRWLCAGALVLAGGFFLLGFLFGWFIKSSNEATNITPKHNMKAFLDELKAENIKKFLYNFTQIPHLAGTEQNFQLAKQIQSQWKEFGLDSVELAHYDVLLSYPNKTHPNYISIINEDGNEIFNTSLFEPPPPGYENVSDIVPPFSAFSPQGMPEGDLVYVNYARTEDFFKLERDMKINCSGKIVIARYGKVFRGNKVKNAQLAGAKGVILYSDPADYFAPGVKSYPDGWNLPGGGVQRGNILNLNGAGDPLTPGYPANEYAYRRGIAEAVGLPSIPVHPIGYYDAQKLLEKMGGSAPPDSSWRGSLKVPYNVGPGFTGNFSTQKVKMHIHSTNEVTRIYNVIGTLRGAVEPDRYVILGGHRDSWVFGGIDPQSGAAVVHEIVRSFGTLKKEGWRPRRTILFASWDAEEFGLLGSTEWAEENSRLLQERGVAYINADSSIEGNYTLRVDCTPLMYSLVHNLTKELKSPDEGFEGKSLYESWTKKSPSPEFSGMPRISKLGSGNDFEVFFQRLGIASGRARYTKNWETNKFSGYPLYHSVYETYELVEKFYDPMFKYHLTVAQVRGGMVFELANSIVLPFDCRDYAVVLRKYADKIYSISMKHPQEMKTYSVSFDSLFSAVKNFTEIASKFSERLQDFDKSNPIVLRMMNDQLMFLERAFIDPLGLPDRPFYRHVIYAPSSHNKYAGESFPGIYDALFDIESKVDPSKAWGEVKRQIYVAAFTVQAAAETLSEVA

B1: IAB2M γ2 EH1 (other)
chain: DIVMTQSPSSLSASVGDRVTITCKASQDVGTAVDWYQQKPGKAPKLLIYWASTRHTGVPDRFTGSGSGTDFTLTISSLQPEDFADYFCQQYNSYPLTFGGGTKLEIKGSTSGGGSGGGSGGGGSSEVQLVQSGAEVKKPGASVKISCKTSGYTFTEYTIHWVKQASGKGLEWIGNINPNNGGTTYNQKFEDRATLTVDKSTSTAYMELSSLRSEDTAVYYCAAGWNFDYWGQGTTVTVSSERKCCVECPPCPGGGSSGGGSGGQPREPQVYTLPPSREEMTKNQVSLTCLVKGFYPSDIAVEWESNGQPENNYKTTPPMLDSDGSFFLYSKLTVDKSRWQQGNVFSCSVMHEALHNHYTQKSLSLSPGK
notes: Anti-PSMA minibody: homodimer of scFv-hinge-CH3
With B1, the binding result in assay [1] is recorded as “binds”.

B2: IAB2M γ1 EH1 (other)
chain: DIVMTQSPSSLSASVGDRVTITCKASQDVGTAVDWYQQKPGKAPKLLIYWASTRHTGVPDRFTGSGSGTDFTLTISSLQPEDFADYFCQQYNSYPLTFGGGTKLEIKGSTSGGGSGGGSGGGGSSEVQLVQSGAEVKKPGASVKISCKTSGYTFTEYTIHWVKQASGKGLEWIGNINPNNGGTTYNQKFEDRATLTVDKSTSTAYMELSSLRSEDTAVYYCAAGWNFDYWGQGTTVTVSSEPKSCDKTHTCPPCGGGSSGGGSGGQPREPQVYTLPPSRDELTKNQVSLTCLVKGFYPSDIAVEWESNGQPENNYKTTPPVLDSDGSFFLYSKLTVDKSRWQQGNVFSCSVMHEALHNHYTQKSLSLSPGK
notes: as for B1
B2: the binding result in assay [2] was “binds”.

B3: IAB2M γ1 EH2 (other)
chain: B2 chain with C245S
notes: as for B1
As to B3, the binding result in assay [2] is “binds”.
